This data set deals with T1, AtFib2 (Arabidopsis thaliana, UniProt Q94AH9 1-320).
T1 sequence: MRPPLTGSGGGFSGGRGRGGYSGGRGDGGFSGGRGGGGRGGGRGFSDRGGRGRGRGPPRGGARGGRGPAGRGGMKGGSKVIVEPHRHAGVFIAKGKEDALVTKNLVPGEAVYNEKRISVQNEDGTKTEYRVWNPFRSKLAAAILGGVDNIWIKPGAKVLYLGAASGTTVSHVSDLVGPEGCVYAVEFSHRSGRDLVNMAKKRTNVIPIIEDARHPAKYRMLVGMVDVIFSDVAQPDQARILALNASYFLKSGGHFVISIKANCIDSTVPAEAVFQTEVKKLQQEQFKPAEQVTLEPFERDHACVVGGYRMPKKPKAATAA
Nature of the data set: EMSA.

Broadly, the Kd is the equilibrium constant for the complex coming apart.

B1: poly(A) 80 nt (ssRNA)
RNA: AAAAAAAAAAAAAAAAAAAAAAAAAAAAAAAAAAAAAAAAAAAAAAAAAAAAAAAAAAAAAAAAAAAAAAAAAAAAAAAA
In turn, B1 registered a Kd of 190 nM.

These data come from paper PMC3203579.
